Data: the supplement of paper PMC10065799, “High-throughput profiling of sequence recognition by tyrosine kinases and SH2 domains using bacterial peptide display” (eLife, 2023)

Target: Fyn (UniProt P06241)
Assay: phosphorylation enrichment, bacterial display (enrichment ratio); higher = better substrate or ligand; peptides without Tyr show the background
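Also: 11-residue human phosphosite peptides and single-mutation variants displayed on the E. coli surface, counted by deep sequencing, each peptide's frequency after selection divided by its frequency in the unselected input library; frequency after pTyr selection over input frequency; kinase dosed for 20-30% of maximal phosphorylation in three min.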

Chain of Fyn (P06241 whole entry, looked up): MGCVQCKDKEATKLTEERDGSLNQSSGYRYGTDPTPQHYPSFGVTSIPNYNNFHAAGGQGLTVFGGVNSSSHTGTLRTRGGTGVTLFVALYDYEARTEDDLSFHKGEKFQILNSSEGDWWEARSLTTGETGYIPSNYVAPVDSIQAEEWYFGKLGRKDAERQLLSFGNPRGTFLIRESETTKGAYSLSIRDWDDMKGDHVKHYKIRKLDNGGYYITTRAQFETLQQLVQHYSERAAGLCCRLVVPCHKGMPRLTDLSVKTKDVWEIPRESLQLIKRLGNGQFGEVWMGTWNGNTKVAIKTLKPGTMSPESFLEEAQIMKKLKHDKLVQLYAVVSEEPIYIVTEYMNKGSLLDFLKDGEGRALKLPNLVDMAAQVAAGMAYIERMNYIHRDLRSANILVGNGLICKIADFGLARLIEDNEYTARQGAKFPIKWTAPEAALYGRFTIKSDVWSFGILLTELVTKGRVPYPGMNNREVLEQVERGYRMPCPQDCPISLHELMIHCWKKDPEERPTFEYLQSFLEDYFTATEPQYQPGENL

Compared with ALKKPYGVLFK [RPF2_Y59_YF], FMFKVYSDPQP [FGFR1_Y280_C277Y_YF] is higher in phosphorylation enrichment: 0.562 for the first, 0.596 for the second.

First: ETKAFYPEEIS [HSPA1A_Y115]
Second: SLNEGYAKDFD [FBP1_Y216_R218K]
The phosphorylation enrichment of the first is lower: 0.414 for the first, 0.534 for the second.

Going from AACQHYGVHTC [NR4A2_Y275_R278H] to SVMAEYGLFAA [VSX2_Y219_G223A_YF], the phosphorylation enrichment rises from 0.433 to 5.82.

Compared with CLAKMYYSAVE [CP_Y539_D544E], LLREWYVQDPF [SIX3_Y225_L226V_YF] is lower in phosphorylation enrichment: 0.563 for the first, 0.438 for the second.

First: TRLAQYDSNSK [BMX_Y216_S212R]
Second: AAVPAYDKIRV [STXBP2_Y401]
The phosphorylation enrichment of the first is higher: 0.44 for the first, 0.344 for the second.

First: SVTCTYSRALN [TP53_Y126_P128R]
Second: VASSLYDILAR [GLB1_Y294]
The phosphorylation enrichment of the first is lower: 0.429 for the first, 1.77 for the second.

Compared with VRTGIYHGGKP [PIK3CA_Y361_E365K], DEEEEYEFMNR [ERBB3_Y1197_D1194E_YF] is higher in phosphorylation enrichment: 0.309 for the first, 0.512 for the second.

Going from VIEFSYTSADG [DHCR7_Y382_C380Y_YF] to RSACTYLAPHL [PLK3_Y615_S618P], the phosphorylation enrichment rises from 0.442 to 1.1.

Compared with EEGNPSYSSAR [MCCC2_Y520_Y520S], HAVVDYMRRQK [ATM_Y1915_L1910H] is higher in phosphorylation enrichment: 0.497 for the first, 0.634 for the second.

First: YVSSFYHAFSG [ACTN4_Y265]
Second: KPFRVYCDMNT [FGB_Y269_YF]
The phosphorylation enrichment of the first is higher: 2.76 for the first, 0.493 for the second.

Compared with RGRSTCFWPRP [GAGE12J_Y9_Y9C_YF], IAINKYGVSLI [MYO7A_Y2136] is lower in phosphorylation enrichment: 0.693 for the first, 0.432 for the second.

Going from DLAAQYTTVGR [SGSH_Y240] to SVVVPYEPPEI [TP53_Y220_V225I], the phosphorylation enrichment falls from 0.52 to 0.408.

Going from MTFQNYRQALF [FAM20C_Y279_G280R] to RRERPYGGGGG [FUS_Y526], the phosphorylation enrichment falls from 0.576 to 0.471.

First: CDFKKYGKGLR [ZNF445_Y433_Y428C_YF]
Second: IFQASYFRRGD [LTK_Y676_R673Q_YF]
The phosphorylation enrichment of the first is lower: 0.479 for the first, 0.499 for the second.

Compared with MDYRSYPHEYG [RBM10_Y44_R46H], MKGEYYRYLAE [YWHAG_Y131_D129E] is higher in phosphorylation enrichment: 0.419 for the first, 0.606 for the second.

Compared with CFTRKYTLPPG [HSPB1_Y142], YCRHNYGVGES [HLA-DRB1_Y112_V115G] is higher in phosphorylation enrichment: 0.443 for the first, 0.487 for the second.

With HVEAVYIDIAD [PITPNA_Y140] the phosphorylation enrichment was 1.14.

Target: EPHB1 (UniProt P54762)
Assay: as above

Chain of EPHB1 (P54762 whole entry, looked up): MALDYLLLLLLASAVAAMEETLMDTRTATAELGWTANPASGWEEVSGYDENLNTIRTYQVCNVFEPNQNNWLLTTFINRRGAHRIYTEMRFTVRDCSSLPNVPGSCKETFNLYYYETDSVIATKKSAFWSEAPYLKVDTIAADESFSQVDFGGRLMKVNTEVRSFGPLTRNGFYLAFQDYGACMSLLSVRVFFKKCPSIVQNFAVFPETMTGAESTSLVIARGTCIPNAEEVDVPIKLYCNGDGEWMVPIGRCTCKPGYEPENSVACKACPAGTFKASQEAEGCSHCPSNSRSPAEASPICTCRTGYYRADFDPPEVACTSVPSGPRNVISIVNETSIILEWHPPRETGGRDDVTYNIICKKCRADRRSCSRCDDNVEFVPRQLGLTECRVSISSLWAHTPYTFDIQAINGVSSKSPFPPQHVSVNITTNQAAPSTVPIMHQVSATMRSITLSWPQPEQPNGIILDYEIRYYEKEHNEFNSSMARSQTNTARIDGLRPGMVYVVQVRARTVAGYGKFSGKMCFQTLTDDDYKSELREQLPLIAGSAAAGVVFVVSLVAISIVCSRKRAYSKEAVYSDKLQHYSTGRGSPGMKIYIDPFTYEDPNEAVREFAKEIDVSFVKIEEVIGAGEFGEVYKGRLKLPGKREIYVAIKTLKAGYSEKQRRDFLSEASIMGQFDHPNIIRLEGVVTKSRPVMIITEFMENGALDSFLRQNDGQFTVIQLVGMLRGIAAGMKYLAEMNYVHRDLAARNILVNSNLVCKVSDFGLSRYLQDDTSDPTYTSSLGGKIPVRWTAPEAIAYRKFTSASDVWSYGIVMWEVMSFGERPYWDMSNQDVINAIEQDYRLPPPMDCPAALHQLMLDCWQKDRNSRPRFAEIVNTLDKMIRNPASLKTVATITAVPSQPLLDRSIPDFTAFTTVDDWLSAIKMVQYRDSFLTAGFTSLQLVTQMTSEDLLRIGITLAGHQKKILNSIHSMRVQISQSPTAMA

First: ALKKPYGVLFK [RPF2_Y59_YF]
Second: FMFKVYSDPQP [FGFR1_Y280_C277Y_YF]
The phosphorylation enrichment of the first is lower: 0.469 for the first, 1.08 for the second.

Compared with ETKAFYPEEIS [HSPA1A_Y115], SLNEGYAKDFD [FBP1_Y216_R218K] is lower in phosphorylation enrichment: 0.52 for the first, 0.508 for the second.

Going from AACQHYGVHTC [NR4A2_Y275_R278H] to SVMAEYGLFAA [VSX2_Y219_G223A_YF], the phosphorylation enrichment rises from 0.445 to 0.484.

Going from CLAKMYYSAVE [CP_Y539_D544E] to LLREWYVQDPF [SIX3_Y225_L226V_YF], the phosphorylation enrichment falls from 0.863 to 0.673.

First: TRLAQYDSNSK [BMX_Y216_S212R]
Second: AAVPAYDKIRV [STXBP2_Y401]
The phosphorylation enrichment of the first is higher: 0.399 for the first, 0.372 for the second.

Going from SVTCTYSRALN [TP53_Y126_P128R] to VASSLYDILAR [GLB1_Y294], the phosphorylation enrichment rises from 0.626 to 1.16.

First: VRTGIYHGGKP [PIK3CA_Y361_E365K]
Second: DEEEEYEFMNR [ERBB3_Y1197_D1194E_YF]
The phosphorylation enrichment of the first is lower: 0.268 for the first, 0.62 for the second.

Going from VIEFSYTSADG [DHCR7_Y382_C380Y_YF] to RSACTYLAPHL [PLK3_Y615_S618P], the phosphorylation enrichment rises from 0.562 to 1.88.

Going from EEGNPSYSSAR [MCCC2_Y520_Y520S] to HAVVDYMRRQK [ATM_Y1915_L1910H], the phosphorylation enrichment rises from 0.514 to 0.701.

First: YVSSFYHAFSG [ACTN4_Y265]
Second: KPFRVYCDMNT [FGB_Y269_YF]
The phosphorylation enrichment of the first is higher: 2.21 for the first, 0.933 for the second.

Going from RGRSTCFWPRP [GAGE12J_Y9_Y9C_YF] to IAINKYGVSLI [MYO7A_Y2136], the phosphorylation enrichment falls from 0.782 to 0.608.

First: DLAAQYTTVGR [SGSH_Y240]
Second: SVVVPYEPPEI [TP53_Y220_V225I]
The phosphorylation enrichment of the first is lower: 0.407 for the first, 0.552 for the second.

First: MTFQNYRQALF [FAM20C_Y279_G280R]
Second: RRERPYGGGGG [FUS_Y526]
The phosphorylation enrichment of the first is higher: 0.477 for the first, 0.453 for the second.

Going from CDFKKYGKGLR [ZNF445_Y433_Y428C_YF] to IFQASYFRRGD [LTK_Y676_R673Q_YF], the phosphorylation enrichment rises from 0.409 to 0.516.

First: MDYRSYPHEYG [RBM10_Y44_R46H]
Second: MKGEYYRYLAE [YWHAG_Y131_D129E]
The phosphorylation enrichment of the first is lower: 0.542 for the first, 0.685 for the second.

Going from CFTRKYTLPPG [HSPB1_Y142] to YCRHNYGVGES [HLA-DRB1_Y112_V115G], the phosphorylation enrichment falls from 0.546 to 0.492.

HVEAVYIDIAD [PITPNA_Y140] was tested, and the phosphorylation enrichment was 2.52.

Target: EPHB2 (UniProt P29323)
Assay: as above

Chain of EPHB2 (P29323 whole entry, looked up): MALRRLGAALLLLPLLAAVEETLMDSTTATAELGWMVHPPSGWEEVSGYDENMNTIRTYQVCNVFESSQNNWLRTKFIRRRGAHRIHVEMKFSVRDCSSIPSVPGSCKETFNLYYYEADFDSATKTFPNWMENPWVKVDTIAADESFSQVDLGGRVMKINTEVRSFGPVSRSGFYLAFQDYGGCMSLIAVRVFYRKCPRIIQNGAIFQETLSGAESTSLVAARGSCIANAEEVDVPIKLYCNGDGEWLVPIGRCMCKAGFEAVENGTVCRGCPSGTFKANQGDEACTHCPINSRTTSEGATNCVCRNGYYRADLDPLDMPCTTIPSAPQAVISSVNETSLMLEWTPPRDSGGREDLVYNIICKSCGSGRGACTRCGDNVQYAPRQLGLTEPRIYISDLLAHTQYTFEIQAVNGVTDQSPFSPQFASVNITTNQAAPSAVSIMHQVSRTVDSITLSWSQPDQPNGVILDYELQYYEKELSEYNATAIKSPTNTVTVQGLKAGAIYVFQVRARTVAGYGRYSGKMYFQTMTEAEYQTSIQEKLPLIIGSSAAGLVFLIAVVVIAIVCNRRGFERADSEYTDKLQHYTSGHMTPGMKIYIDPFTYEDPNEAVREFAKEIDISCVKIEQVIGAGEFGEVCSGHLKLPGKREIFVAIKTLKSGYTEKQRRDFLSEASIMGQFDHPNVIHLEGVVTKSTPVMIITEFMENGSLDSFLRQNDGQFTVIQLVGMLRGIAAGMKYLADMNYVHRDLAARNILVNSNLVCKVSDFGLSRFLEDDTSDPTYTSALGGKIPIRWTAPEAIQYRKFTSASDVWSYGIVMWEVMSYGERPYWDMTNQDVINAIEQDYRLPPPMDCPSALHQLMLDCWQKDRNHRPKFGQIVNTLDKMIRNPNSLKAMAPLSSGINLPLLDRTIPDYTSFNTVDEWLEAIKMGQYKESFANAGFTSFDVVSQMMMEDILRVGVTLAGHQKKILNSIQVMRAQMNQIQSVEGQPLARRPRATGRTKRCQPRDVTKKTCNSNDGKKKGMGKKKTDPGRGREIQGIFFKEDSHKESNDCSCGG

First: ALKKPYGVLFK [RPF2_Y59_YF]
Second: FMFKVYSDPQP [FGFR1_Y280_C277Y_YF]
The phosphorylation enrichment of the first is lower: 0.502 for the first, 0.845 for the second.

First: ETKAFYPEEIS [HSPA1A_Y115]
Second: SLNEGYAKDFD [FBP1_Y216_R218K]
The phosphorylation enrichment of the first is higher: 0.747 for the first, 0.6 for the second.

Compared with AACQHYGVHTC [NR4A2_Y275_R278H], SVMAEYGLFAA [VSX2_Y219_G223A_YF] is higher in phosphorylation enrichment: 0.471 for the first, 0.578 for the second.

First: CLAKMYYSAVE [CP_Y539_D544E]
Second: LLREWYVQDPF [SIX3_Y225_L226V_YF]
The phosphorylation enrichment of the first is higher: 0.901 for the first, 0.621 for the second.

First: TRLAQYDSNSK [BMX_Y216_S212R]
Second: AAVPAYDKIRV [STXBP2_Y401]
The phosphorylation enrichment of the first is higher: 0.402 for the first, 0.355 for the second.

First: SVTCTYSRALN [TP53_Y126_P128R]
Second: VASSLYDILAR [GLB1_Y294]
The phosphorylation enrichment of the first is lower: 0.602 for the first, 1.01 for the second.

First: VRTGIYHGGKP [PIK3CA_Y361_E365K]
Second: DEEEEYEFMNR [ERBB3_Y1197_D1194E_YF]
The phosphorylation enrichment of the first is lower: 0.336 for the first, 0.76 for the second.

First: VIEFSYTSADG [DHCR7_Y382_C380Y_YF]
Second: RSACTYLAPHL [PLK3_Y615_S618P]
The phosphorylation enrichment of the first is lower: 0.504 for the first, 1.25 for the second.

First: EEGNPSYSSAR [MCCC2_Y520_Y520S]
Second: HAVVDYMRRQK [ATM_Y1915_L1910H]
The phosphorylation enrichment of the first is lower: 0.539 for the first, 1.03 for the second.

Going from YVSSFYHAFSG [ACTN4_Y265] to KPFRVYCDMNT [FGB_Y269_YF], the phosphorylation enrichment falls from 1.41 to 0.72.

Going from RGRSTCFWPRP [GAGE12J_Y9_Y9C_YF] to IAINKYGVSLI [MYO7A_Y2136], the phosphorylation enrichment falls from 0.733 to 0.613.

Compared with DLAAQYTTVGR [SGSH_Y240], SVVVPYEPPEI [TP53_Y220_V225I] is higher in phosphorylation enrichment: 0.415 for the first, 0.62 for the second.

Going from MTFQNYRQALF [FAM20C_Y279_G280R] to RRERPYGGGGG [FUS_Y526], the phosphorylation enrichment falls from 0.572 to 0.554.

First: CDFKKYGKGLR [ZNF445_Y433_Y428C_YF]
Second: IFQASYFRRGD [LTK_Y676_R673Q_YF]
The phosphorylation enrichment of the first is lower: 0.413 for the first, 0.518 for the second.

Going from MDYRSYPHEYG [RBM10_Y44_R46H] to MKGEYYRYLAE [YWHAG_Y131_D129E], the phosphorylation enrichment rises from 0.551 to 0.779.

Compared with CFTRKYTLPPG [HSPB1_Y142], YCRHNYGVGES [HLA-DRB1_Y112_V115G] is higher in phosphorylation enrichment: 0.459 for the first, 0.473 for the second.

Sequence HVEAVYIDIAD [PITPNA_Y140] has a phosphorylation enrichment of 1.27.

Test system: c-Src
Assay: as above

First: ALKKPYGVLFK [RPF2_Y59_YF]
Second: FMFKVYSDPQP [FGFR1_Y280_C277Y_YF]
The phosphorylation enrichment of the first is higher: 0.777 for the first, 0.398 for the second.

Compared with ETKAFYPEEIS [HSPA1A_Y115], SLNEGYAKDFD [FBP1_Y216_R218K] is lower in phosphorylation enrichment: 0.511 for the first, 0.371 for the second.

Going from AACQHYGVHTC [NR4A2_Y275_R278H] to SVMAEYGLFAA [VSX2_Y219_G223A_YF], the phosphorylation enrichment rises from 0.345 to 4.95.

Compared with CLAKMYYSAVE [CP_Y539_D544E], LLREWYVQDPF [SIX3_Y225_L226V_YF] is lower in phosphorylation enrichment: 0.725 for the first, 0.466 for the second.

Compared with TRLAQYDSNSK [BMX_Y216_S212R], AAVPAYDKIRV [STXBP2_Y401] is lower in phosphorylation enrichment: 0.643 for the first, 0.452 for the second.

Compared with SVTCTYSRALN [TP53_Y126_P128R], VASSLYDILAR [GLB1_Y294] is higher in phosphorylation enrichment: 0.494 for the first, 2.84 for the second.

First: VRTGIYHGGKP [PIK3CA_Y361_E365K]
Second: DEEEEYEFMNR [ERBB3_Y1197_D1194E_YF]
The phosphorylation enrichment of the first is lower: 0.318 for the first, 0.527 for the second.

Compared with VIEFSYTSADG [DHCR7_Y382_C380Y_YF], RSACTYLAPHL [PLK3_Y615_S618P] is higher in phosphorylation enrichment: 0.341 for the first, 2.74 for the second.

First: EEGNPSYSSAR [MCCC2_Y520_Y520S]
Second: HAVVDYMRRQK [ATM_Y1915_L1910H]
The phosphorylation enrichment of the first is higher: 0.542 for the first, 0.539 for the second.

Compared with YVSSFYHAFSG [ACTN4_Y265], KPFRVYCDMNT [FGB_Y269_YF] is lower in phosphorylation enrichment: 3.68 for the first, 0.414 for the second.

First: RGRSTCFWPRP [GAGE12J_Y9_Y9C_YF]
Second: IAINKYGVSLI [MYO7A_Y2136]
The phosphorylation enrichment of the first is higher: 0.867 for the first, 0.441 for the second.

Compared with DLAAQYTTVGR [SGSH_Y240], SVVVPYEPPEI [TP53_Y220_V225I] is lower in phosphorylation enrichment: 0.912 for the first, 0.447 for the second.

Going from MTFQNYRQALF [FAM20C_Y279_G280R] to RRERPYGGGGG [FUS_Y526], the phosphorylation enrichment rises from 0.462 to 0.485.

First: CDFKKYGKGLR [ZNF445_Y433_Y428C_YF]
Second: IFQASYFRRGD [LTK_Y676_R673Q_YF]
The phosphorylation enrichment of the first is lower: 0.441 for the first, 0.543 for the second.

Compared with MDYRSYPHEYG [RBM10_Y44_R46H], MKGEYYRYLAE [YWHAG_Y131_D129E] is higher in phosphorylation enrichment: 0.518 for the first, 0.795 for the second.

Compared with CFTRKYTLPPG [HSPB1_Y142], YCRHNYGVGES [HLA-DRB1_Y112_V115G] is higher in phosphorylation enrichment: 0.452 for the first, 0.552 for the second.

Sequence HVEAVYIDIAD [PITPNA_Y140] has a phosphorylation enrichment of 1.87.
